Data as given in paper PMC9352680, “A comprehensive thermodynamic model for RNA binding by the Saccharomyces cerevisiae Pumilio protein PUF4”.
Positions count from the first letter of the chain named. Names may count otherwise.

B1: Ic_S2_P4E.1_K4.1_C4.1_H4.1_A4.1_[A6G]_F4.1_[T8C]_[A9C]_T4.1 (ssRNA)
RNA: UUUGAUUAAUAUGAUAUCGUUCUUUCUUGUAUGUCCUUCUUUCUCGAUAUCAUAUUAAUCUUU
B2: Ic_S2_P4E.1_K4.1_C4.1_H4.1_A4.1_[A6C]_[T7A]_F4.1_[T8A]_[A9C]_T4.1 (ssRNA)
RNA: B1 RNA with G33C, U34A, C35A
B3: Ic_S2_P4E.1_K4.1_C4.1_H4.1_A4.1_[A6T]_[T7G]_F4.1_[T8C]_[A9C]_T4.1 (ssRNA)
RNA: B1 RNA with G33U, U34G
B4: Ic_S2_P4E.1_K4.1_C4.1_H4.1_A4.1_[A6T]_[T7G]_F4.1_[T8G]_[A9C]_T4.1 (ssRNA)
RNA: B1 RNA with G33U, U34G, C35G
B5: Ic_S2_P4E.1_K4.1_C4.1_H4.1_A4.1_[A6C]_F4.1_[T8A]_[A9G]_T4.1 (ssRNA)
RNA: B1 RNA with G33C, C35A, C36G
B6: Ic_S2_P4E.1_K4.1_C4.1_H4.1_A4.1_[A6T]_F4.1_[T8C]_[A9C]_T4.1 (ssRNA)
RNA: B1 RNA with G33U
B7: Ic_S2_P4E.1_K4.1_C4.1_H4.1_A4.1_[A6C]_F4.1_[T8C]_[A9C]_T4.1 (ssRNA)
RNA: B1 RNA with G33C
B8: Ic_S2_P4E.1_K4.1_C4.1_H4.1_A4.1_[A6G]_F4.1_[T8C]_[A9T]_T4.1 (ssRNA)
RNA: B1 RNA with C36U
B9: Ic_S2_P4E.1_K4.1_C4.1_H4.1_A4.1_[A6T]_[T7G]_F4.1_[T8C]_[A9T]_T4.1 (ssRNA)
RNA: B1 RNA with G33U, U34G, C36U
B10: Ic_S2_P4E.1_K4.1_C4.1_H4.1_A4.1_[A6T]_[T7A]_F4.1_[T8A]_[A9T]_T4.1 (ssRNA)
RNA: B1 RNA with G33U, U34A, C35A, C36U
B11: Ic_S2_P4E.1_K4.1_C4.1_H4.1_A4.1_[A6G]_F4.1_[T8A]_[A9C]_T4.1 (ssRNA)
RNA: B1 RNA with C35A
B12: Ic_S2_P4E.1_K4.1_C4.1_H4.1_A4.1_[A6T]_[T7G]_F4.1_[A9C]_T4.1 (ssRNA)
RNA: B1 RNA with G33U, U34G, C35U
B13: Ic_S2_P4E.1_K4.1_C4.1_H4.1_A4.1_[A6G]_F4.1_[T8A]_[A9T]_T4.1 (ssRNA)
RNA: B1 RNA with C35A, C36U
B14: Ic_S2_P4E.1_K4.1_C4.1_H4.1_A4.1_[A6T]_[T7C]_F4.1_[T8C]_[A9G]_T4.1 (ssRNA)
RNA: B1 RNA with G33U, U34C, C36G
B15: Ic_S2_P4E.1_K4.1_C4.1_H4.1_A4.1_[A6T]_F4.1_[T8C]_[A9T]_T4.1 (ssRNA)
RNA: B1 RNA with G33U, C36U
B16: Ic_S2_P4E.1_K4.1_C4.1_H4.1_A4.1_[A6T]_[T7A]_F4.1_[T8C]_[A9G]_T4.1 (ssRNA)
RNA: B1 RNA with G33U, U34A, C36G
B17: Ic_S2_P4E.1_K4.1_C4.1_H4.1_A4.1_[A6T]_[T7A]_F4.1_[T8G]_[A9C]_T4.1 (ssRNA)
RNA: B1 RNA with G33U, U34A, C35G
B18: Ic_S2_P4E.1_K4.1_C4.1_H4.1_A4.1_[A6C]_[T7A]_F4.1_[A9G]_T4.1 (ssRNA)
RNA: B1 RNA with G33C, U34A, C35U, C36G
B19: Ic_S2_P4E.1_K4.1_C4.1_H4.1_A4.1_[A6C]_[T7C]_F4.1_[T8G]_[A9G]_T4.1 (ssRNA)
RNA: B1 RNA with G33C, U34C, C35G, C36G
B20: Ic_S2_P4E.1_K4.1_C4.1_H4.1_A4.1_[A6C]_[T7A]_F4.1_[T8C]_[A9G]_T4.1 (ssRNA)
RNA: B1 RNA with G33C, U34A, C36G
B21: Ic_S2_P4E.1_K4.1_C4.1_H4.1_A4.1_[A6T]_[T7C]_F4.1_[T8A]_[A9T]_T4.1 (ssRNA)
RNA: B1 RNA with G33U, U34C, C35A, C36U
B22: Ic_S2_P4E.1_K4.1_C4.1_H4.1_A4.1_[A6T]_[T7C]_F4.1_[T8A]_T4.1 (ssRNA)
RNA: B1 RNA with G33U, U34C, C35A, C36A
B23: Ic_S2_P4E.1_K4.1_C4.1_H4.1_A4.1_[A6T]_[T7G]_F4.1_[A9T]_T4.1 (ssRNA)
RNA: B1 RNA with G33U, U34G, C35U, C36U
B24: Ic_S2_P4E.1_K4.1_C4.1_H4.1_A4.1_[A6C]_[T7C]_F4.1_[T8G]_[A9C]_T4.1 (ssRNA)
RNA: B1 RNA with G33C, U34C, C35G
B25: Ic_S2_P4E.1_K4.1_C4.1_H4.1_A4.1_[A6C]_[T7G]_F4.1_[A9G]_T4.1 (ssRNA)
RNA: B1 RNA with G33C, U34G, C35U, C36G
B26: Ic_S2_P4E.1_K4.1_C4.1_H4.1_A4.1_[A6C]_[T7C]_F4.1_[T8C]_[A9T]_T4.1 (ssRNA)
RNA: B1 RNA with G33C, U34C, C36U
B27: Ic_S2_P4E.1_K4.1_C4.1_H4.1_A4.1_[A6T]_[T7G]_F4.1_[T8C]_T4.1 (ssRNA)
RNA: B1 RNA with G33U, U34G, C36A
B28: Ic_S2_P4E.1_K4.1_C4.1_H4.1_A4.1_[A6T]_[T7C]_F4.1_[T8G]_[A9T]_T4.1 (ssRNA)
RNA: B1 RNA with G33U, U34C, C35G, C36U
B29: Ic_S2_P4E.1_K4.1_C4.1_H4.1_A4.1_[A6C]_F4.1_[T8C]_[A9T]_T4.1 (ssRNA)
RNA: B1 RNA with G33C, C36U
B30: Ic_S2_P4E.1_K4.1_C4.1_H4.1_A4.1_[A6C]_F4.1_[T8G]_[A9T]_T4.1 (ssRNA)
RNA: B1 RNA with G33C, C35G, C36U
B31: Ic_S2_P4E.1_K4.1_C4.1_H4.1_A4.1_[A6T]_F4.1_[T8G]_[A9C]_T4.1 (ssRNA)
RNA: B1 RNA with G33U, C35G
B32: Ic_S2_P4E.1_K4.1_C4.1_H4.1_A4.1_[A6C]_[T7A]_F4.1_[T8C]_[A9T]_T4.1 (ssRNA)
RNA: B1 RNA with G33C, U34A, C36U
B33: Ic_S2_P4E.1_K4.1_C4.1_H4.1_A4.1_[A6T]_[T7C]_F4.1_[T8A]_[A9G]_T4.1 (ssRNA)
RNA: B1 RNA with G33U, U34C, C35A, C36G
B34: Ic_S2_P4E.1_K4.1_C4.1_H4.1_A4.1_[A6T]_[T7C]_F4.1_[T8A]_[A9C]_T4.1 (ssRNA)
RNA: B1 RNA with G33U, U34C, C35A
B35: Ic_S2_P4E.1_K4.1_C4.1_H4.1_A4.1_[A6C]_F4.1_[T8C]_[A9G]_T4.1 (ssRNA)
RNA: B1 RNA with G33C, C36G
B36: Ic_S2_P4E.1_K4.1_C4.1_H4.1_A4.1_[A6T]_F4.1_[T8A]_[A9C]_T4.1 (ssRNA)
RNA: B1 RNA with G33U, C35A
B37: Ic_S2_P4E.1_K4.1_C4.1_H4.1_A4.1_[A6C]_[T7C]_F4.1_[T8G]_[A9T]_T4.1 (ssRNA)
RNA: B1 RNA with G33C, U34C, C35G, C36U
B38: Ic_S2_P4E.1_K4.1_C4.1_H4.1_A4.1_[A6T]_[T7A]_F4.1_[A9G]_T4.1 (ssRNA)
RNA: B1 RNA with G33U, U34A, C35U, C36G
B39: Ic_S2_P4E.1_K4.1_C4.1_H4.1_A4.1_[A6C]_[T7C]_F4.1_[T8A]_T4.1 (ssRNA)
RNA: B1 RNA with G33C, U34C, C35A, C36A
B40: Ic_S2_P4E.1_K4.1_C4.1_H4.1_A4.1_[A6C]_F4.1_[T8A]_[A9T]_T4.1 (ssRNA)
RNA: B1 RNA with G33C, C35A, C36U
B41: Ic_S2_P4E.1_K4.1_C4.1_H4.1_A4.1_[A6T]_[T7C]_F4.1_[T8C]_[A9C]_T4.1 (ssRNA)
RNA: B1 RNA with G33U, U34C
B42: Ic_S2_P4E.1_K4.1_C4.1_H4.1_A4.1_[A6C]_[T7A]_F4.1_[A9T]_T4.1 (ssRNA)
RNA: B1 RNA with G33C, U34A, C35U, C36U
B43: Ic_S2_P4E.1_K4.1_C4.1_H4.1_A4.1_[A6C]_[T7A]_F4.1_[T8C]_T4.1 (ssRNA)
RNA: B1 RNA with G33C, U34A, C36A
B44: Ic_S2_P4E.1_K4.1_C4.1_H4.1_A4.1_[A6C]_[T7C]_F4.1_[T8A]_[A9C]_T4.1 (ssRNA)
RNA: B1 RNA with G33C, U34C, C35A
B45: Ic_S2_P4E.1_K4.1_C4.1_H4.1_A4.1_[A6C]_[T7G]_F4.1_[A9C]_T4.1 (ssRNA)
RNA: B1 RNA with G33C, U34G, C35U
B46: Ic_S2_P4E.1_K4.1_C4.1_H4.1_A4.1_[A6T]_[T7C]_F4.1_[A9C]_T4.1 (ssRNA)
RNA: B1 RNA with G33U, U34C, C35U
B47: Ic_S2_P4E.1_K4.1_C4.1_H4.1_A4.1_[A6T]_[T7G]_F4.1_[T8G]_[A9T]_T4.1 (ssRNA)
RNA: B1 RNA with G33U, U34G, C35G, C36U
B48: Ic_S2_P4E.1_K4.1_C4.1_H4.1_A4.1_[A6C]_[T7C]_F4.1_[A9C]_T4.1 (ssRNA)
RNA: B1 RNA with G33C, U34C, C35U

Target: T1, PUF4 RNA-binding domain (Saccharomyces cerevisiae, UniProt P25339 537-888)
T1 sequence: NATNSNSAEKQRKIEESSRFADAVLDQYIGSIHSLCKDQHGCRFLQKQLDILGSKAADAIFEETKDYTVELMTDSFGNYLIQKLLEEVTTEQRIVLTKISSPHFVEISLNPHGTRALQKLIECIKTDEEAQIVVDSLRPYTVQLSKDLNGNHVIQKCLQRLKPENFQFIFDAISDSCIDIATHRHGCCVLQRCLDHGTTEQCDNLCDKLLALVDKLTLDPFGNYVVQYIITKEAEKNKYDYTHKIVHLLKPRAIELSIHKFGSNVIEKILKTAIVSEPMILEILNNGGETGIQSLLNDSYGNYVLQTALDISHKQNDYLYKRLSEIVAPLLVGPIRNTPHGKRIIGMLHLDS
Experiment: Mg; RNA-MaP; 20 mM Na-HEPES pH 7.4, 30 mM KOAc, 0.75 mM MgCl2, 0.1% Tween-20, 5% glycerol, 0.1 mg/mL BSA, 2 mM DTT; 25 C; 0.0125-409.6 nM protein
Conditions: tags: N-His6-TEV cleaved; C-SNAP kept, Cy3B-labelled; label: tethered on chip by stalled RNA polymerase

Binder	Kd
UCUCUUUGUAUAUCCUCUCUU (ssRNA) [Ib_S1_P4E.1_K4.1_C4.1_H4.1_A4.1_F4.1_[T8C]_[A9C]_T4.1]	18.9 nM
B1	32.5 nM
B2	309 nM
B3	645 nM
B4	> 2300 nM
B5	32.9 nM
B6	52.7 nM
B7	28.4 nM
B8	57 nM
B9	536 nM
B10	78.2 nM
B11	55.8 nM
B12	127 nM
B13	26.9 nM
B14	168 nM
B15	21.7 nM
B16	93.7 nM
B17	685 nM
B18	4.75 nM
B19	866 nM
B20	228 nM
B21	89.9 nM
B22	201 nM
B23	57 nM
B24	800 nM
B25	59.3 nM
B26	166 nM

Binder	Kd
B27	742 nM
B28	112 nM
B29	17.7 nM
B30	17.9 nM
B31	195 nM
B32	76.1 nM
B33	350 nM
B34	595 nM
B35	23.6 nM
B36	106 nM
B37	149 nM
B38	4.55 nM
B39	369 nM
B40	7.99 nM
B41	162 nM
B42	3.46 nM
B43	347 nM
B44	820 nM
B45	507 nM
B46	12.7 nM
B47	1200 nM
B48	27.5 nM
UCUCUUUGUAUAUACUCUCUU (ssRNA) [Ib_S1_P4E.1_K4.1_C4.1_H4.1_A4.1_F4.1_[T8A]_[A9C]_T4.1]	8.2 nM
UCUCUUUGUAUAUCUUCUCUU (ssRNA) [Ib_S1_P4E.1_K4.1_C4.1_H4.1_A4.1_F4.1_[T8C]_[A9T]_T4.1]	13.4 nM
UCUCUUUGUAUAUCGUCUCUU (ssRNA) [Ib_S1_P4E.1_K4.1_C4.1_H4.1_A4.1_F4.1_[T8C]_[A9G]_T4.1]	26.1 nM
UCUCUUUGUAUAUGUUCUCUU (ssRNA) [Ic_S1_P4E.1_K4.1_C4.1_H4.1_A4.1_F4.1_[T8G]_[A9T]_T4.1]	15.6 nM
